According to the supplement of paper PMC10567573:

B1: APBB1IP (parent)
chain: SQVSMWDQRWQDHQPLLPITDVP
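Also: lentivirally expressed fusions sorted by FACS into six bins by GFP to DsRed ratio, PSI derived from sequencing read proportions per bin multiplied by bin number.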

Variants of: B1
Assay: protein stability index of a GFP-peptide fusion (GPS, HEK-293T) (PSI 1-6); higher = more stable
Settings: c terminus: native
SQVSMWDTRWQDHQPLLPITDVP [Q8T] gave a protein stability index of 2.09.
In the case of SQVSMWDIRWQDHQPLLPITDVP [Q8I], the protein stability index is reported as 1.94.
SQVSMWDKRWQDHQPLLPITDVP [Q8K] showed a protein stability index of 2.68.
Variant SQVSMWDERWQDHQPLLPITDVP [Q8E] has a protein stability index of 2.6.
Variant SQVSMWDYRWQDHQPLLPITDVP [Q8Y] has a protein stability index of 2.21.
With SQVSMWDWRWQDHQPLLPITDVP [Q8W] the protein stability index was 3.03.
For SQVSMWDLRWQDHQPLLPITDVP [Q8L], the protein stability index was 1.86.
In the case of SQVSMWDHRWQDHQPLLPITDVP [Q8H], the protein stability index is reported as 2.16.
With SQVSMWDVRWQDHQPLLPITDVP [Q8V] the protein stability index was 2.33.
SQVSMWDCRWQDHQPLLPITDVP [Q8C] gave a protein stability index of 1.37.
Variant SQVSMWDARWQDHQPLLPITDVP [Q8A] has a protein stability index of 2.03.
Variant SQVSMWDMRWQDHQPLLPITDVP [Q8M] has a protein stability index of 1.39.
Work on SQVSMWDRRWQDHQPLLPITDVP [Q8R] yielded a protein stability index of 1.78.
Variant SQVSMWDPRWQDHQPLLPITDVP [Q8P] has a protein stability index of 2.13.
For SQVSMWDSRWQDHQPLLPITDVP [Q8S], the protein stability index was 2.28.
SQVSMWDNRWQDHQPLLPITDVP [Q8N] gave a protein stability index of 2.68.
For SQVSMWDDRWQDHQPLLPITDVP [Q8D], the protein stability index was 2.35.
Work on SQVSMWDGRWQDHQPLLPITDVP [Q8G] yielded a protein stability index of 2.27.
In the case of SQVSMWDFRWQDHQPLLPITDVP [Q8F], the protein stability index is reported as 1.73.
For SQVSMWDQRWQDHQELLPITDVP [P15E], the protein stability index was 2.77.
Variant SQVSMWDQRWQDHQILLPITDVP [P15I] has a protein stability index of 2.03.
In the case of SQVSMWDQRWQDHQLLLPITDVP [P15L], the protein stability index is reported as 2.06.
SQVSMWDQRWQDHQFLLPITDVP [P15F] gave a protein stability index of 2.2.
SQVSMWDQRWQDHQNLLPITDVP [P15N] showed a protein stability index of 2.77.
Work on SQVSMWDQRWQDHQDLLPITDVP [P15D] yielded a protein stability index of 4.41.
With SQVSMWDQRWQDHQALLPITDVP [P15A] the protein stability index was 2.23.
SQVSMWDQRWQDHQHLLPITDVP [P15H] showed a protein stability index of 2.07.
In the case of SQVSMWDQRWQDHQYLLPITDVP [P15Y], the protein stability index is reported as 2.27.
SQVSMWDQRWQDHQGLLPITDVP [P15G] showed a protein stability index of 3.45.
For SQVSMWDQRWQDHQTLLPITDVP [P15T], the protein stability index was 1.93.
Variant SQVSMWDQRWQDHQQLLPITDVP [P15Q] has a protein stability index of 3.25.
With SQVSMWDQRWQDHQMLLPITDVP [P15M] the protein stability index was 1.82.
Variant SQVSMWDQRWQDHQVLLPITDVP [P15V] has a protein stability index of 1.55.
Variant SQVSMWDQRWQDHQWLLPITDVP [P15W] has a protein stability index of 1.43.
Work on SQVSMWDQRWQDHQKLLPITDVP [P15K] yielded a protein stability index of 2.82.
SQVSMWDQRWQDHQSLLPITDVP [P15S] showed a protein stability index of 3.35.
In the case of SQVSMWDQRWQDHQCLLPITDVP [P15C], the protein stability index is reported as 2.18.
Work on SQVSMWDQGWQDHQPLLPITDVP [R9G] yielded a protein stability index of 2.89.
Variant SQVSMWDQMWQDHQPLLPITDVP [R9M] has a protein stability index of 3.13.
SQVSMWDQEWQDHQPLLPITDVP [R9E] showed a protein stability index of 3.54.
Work on SQVSMWDQHWQDHQPLLPITDVP [R9H] yielded a protein stability index of 3.7.
SQVSMWDQLWQDHQPLLPITDVP [R9L] gave a protein stability index of 2.61.
Variant SQVSMWDQYWQDHQPLLPITDVP [R9Y] has a protein stability index of 2.42.
SQVSMWDQAWQDHQPLLPITDVP [R9A] showed a protein stability index of 1.84.
For SQVSMWDQIWQDHQPLLPITDVP [R9I], the protein stability index was 2.34.
Variant SQVSMWDQSWQDHQPLLPITDVP [R9S] has a protein stability index of 2.4.
Variant SQVSMWDQNWQDHQPLLPITDVP [R9N] has a protein stability index of 2.73.
With SQVSMWDQCWQDHQPLLPITDVP [R9C] the protein stability index was 2.26.
Work on SQVSMWDQFWQDHQPLLPITDVP [R9F] yielded a protein stability index of 3.11.
For SQVSMWDQVWQDHQPLLPITDVP [R9V], the protein stability index was 2.38.
For SQVSMWDQPWQDHQPLLPITDVP [R9P], the protein stability index was 3.64.
SQVSMWDQQWQDHQPLLPITDVP [R9Q] gave a protein stability index of 3.39.
For SQVSMWDQDWQDHQPLLPITDVP [R9D], the protein stability index was 3.69.
Work on SQVSMWDQWWQDHQPLLPITDVP [R9W] yielded a protein stability index of 1.93.
With SQVSMWDQRWQDHQPLAPITDVP [L17A] the protein stability index was 3.32.
Variant SQVSMWDQRWQDHQPLNPITDVP [L17N] has a protein stability index of 3.1.
In the case of SQVSMWDQRWQDHQPLEPITDVP [L17E], the protein stability index is reported as 3.68.
With SQVSMWDQRWQDHQPLCPITDVP [L17C] the protein stability index was 2.06.
Variant SQVSMWDQRWQDHQPLKPITDVP [L17K] has a protein stability index of 3.67.
In the case of SQVSMWDQRWQDHQPLDPITDVP [L17D], the protein stability index is reported as 3.79.
SQVSMWDQRWQDHQPLMPITDVP [L17M] showed a protein stability index of 2.17.
In the case of SQVSMWDQRWQDHQPLHPITDVP [L17H], the protein stability index is reported as 3.2.
In the case of SQVSMWDQRWQDHQPLFPITDVP [L17F], the protein stability index is reported as 2.06.
In the case of SQVSMWDQRWQDHQPLIPITDVP [L17I], the protein stability index is reported as 1.85.
SQVSMWDQRWQDHQPLGPITDVP [L17G] showed a protein stability index of 3.81.
SQVSMWSQRWQDHQPLLPITDVP [D7S] gave a protein stability index of 1.61.
Variant SQVSMWHQRWQDHQPLLPITDVP [D7H] has a protein stability index of 1.68.
SQVSMWIQRWQDHQPLLPITDVP [D7I] gave a protein stability index of 1.04.
In the case of SQVSMWMQRWQDHQPLLPITDVP [D7M], the protein stability index is reported as 1.44.
Work on SQVSMWQQRWQDHQPLLPITDVP [D7Q] yielded a protein stability index of 2.44.
Variant SQVSMWWQRWQDHQPLLPITDVP [D7W] has a protein stability index of 1.49.
SQVSMWCQRWQDHQPLLPITDVP [D7C] showed a protein stability index of 2.37.
Variant SQVSMWAQRWQDHQPLLPITDVP [D7A] has a protein stability index of 3.25.
SQVSMWEQRWQDHQPLLPITDVP [D7E] gave a protein stability index of 2.85.
For SQVSMWNQRWQDHQPLLPITDVP [D7N], the protein stability index was 2.44.
With SQVSMWGQRWQDHQPLLPITDVP [D7G] the protein stability index was 1.49.
For SQVSMWPQRWQDHQPLLPITDVP [D7P], the protein stability index was 1.96.
For SQVSMWRQRWQDHQPLLPITDVP [D7R], the protein stability index was 1.77.
Work on SQVSMWTQRWQDHQPLLPITDVP [D7T] yielded a protein stability index of 2.27.
Work on SQVSMWLQRWQDHQPLLPITDVP [D7L] yielded a protein stability index of 1.72.
SQVSMWFQRWQDHQPLLPITDVP [D7F] showed a protein stability index of 1.23.
SQVSMWYQRWQDHQPLLPITDVP [D7Y] showed a protein stability index of 2.
For SQVSMWKQRWQDHQPLLPITDVP [D7K], the protein stability index was 1.46.
In the case of SQVSMWDQRWQDQQPLLPITDVP [H13Q], the protein stability index is reported as 2.43.
Work on SQVSMWDQRWQDYQPLLPITDVP [H13Y] yielded a protein stability index of 2.15.
SQVSMWDQRWQDWQPLLPITDVP [H13W] showed a protein stability index of 1.5.
With SQVSMWDQRWQDGQPLLPITDVP [H13G] the protein stability index was 3.03.
SQVSMWDQRWQDCQPLLPITDVP [H13C] showed a protein stability index of 2.24.
In the case of SQVSMWDQRWQDRQPLLPITDVP [H13R], the protein stability index is reported as 2.58.
For SQVSMWDQRWQDFQPLLPITDVP [H13F], the protein stability index was 1.88.
SQVSMWDQRWQDVQPLLPITDVP [H13V] showed a protein stability index of 2.47.
SQVSMWDQRWQDPQPLLPITDVP [H13P] gave a protein stability index of 2.23.
For SQVSMWDQRWQDMQPLLPITDVP [H13M], the protein stability index was 1.99.
With SQVSMWDQRWQDSQPLLPITDVP [H13S] the protein stability index was 2.94.
Work on SQVSMWDQRWQDLQPLLPITDVP [H13L] yielded a protein stability index of 1.95.
In the case of SQVSMWDQRWQDIQPLLPITDVP [H13I], the protein stability index is reported as 2.3.
Work on SQVSMWDQRWQDKQPLLPITDVP [H13K] yielded a protein stability index of 2.76.
